# T1: TRAK1-mScarlet (wild type, truncated before the mitochondrial binding domain) (human, UniProt Q9UPV9 1-702)
# T1 sequence (looked up): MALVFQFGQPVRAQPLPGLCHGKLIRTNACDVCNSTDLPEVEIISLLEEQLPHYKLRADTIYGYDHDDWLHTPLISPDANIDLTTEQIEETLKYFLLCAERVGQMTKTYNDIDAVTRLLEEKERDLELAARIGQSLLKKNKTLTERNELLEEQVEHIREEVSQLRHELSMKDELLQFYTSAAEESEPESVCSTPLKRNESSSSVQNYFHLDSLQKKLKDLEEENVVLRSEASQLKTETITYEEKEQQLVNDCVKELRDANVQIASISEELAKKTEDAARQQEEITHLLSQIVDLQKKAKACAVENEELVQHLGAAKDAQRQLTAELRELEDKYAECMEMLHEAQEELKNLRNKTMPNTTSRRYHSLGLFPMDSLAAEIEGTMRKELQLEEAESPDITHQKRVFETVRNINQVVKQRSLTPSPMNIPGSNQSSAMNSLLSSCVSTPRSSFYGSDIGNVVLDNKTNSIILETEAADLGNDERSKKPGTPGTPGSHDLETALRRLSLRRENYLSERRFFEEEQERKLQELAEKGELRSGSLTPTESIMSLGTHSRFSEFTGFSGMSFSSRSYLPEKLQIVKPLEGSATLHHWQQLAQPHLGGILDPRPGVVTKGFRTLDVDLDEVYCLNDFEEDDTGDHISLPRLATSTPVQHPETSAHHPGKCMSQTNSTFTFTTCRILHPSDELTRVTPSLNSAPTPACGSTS
# Target: T1, TRAK1-mScarlet (wild type, truncated …)
# Assay: co-IP
binder,measurement,value
"kinesin-1 (KIF5B) (natural protein, human (endogenous in hTERT RPE-1), UniProt P33176 1-963, looked up) MADLAECNIKVMCRFRPLNESEVNRGDKYIAKFQGEDTVVIASKPYAFDRVFQSSTSQEQVYNDCAKKIVKDVLEGYNGTIFAYGQTSSGKTHTMEGKLHDPEGMGIIPRIVQDIFNYIYSMDENLEFHIKVSYFEIYLDKIRDLLDVSKTNLSVHEDKNRVPYVKGCTERFVCSPDEVMDTIDEGKSNRHVAVTNMNEHSSRSHSIFLINVKQENTQTEQKLSGKLYLVDLAGSEKVSKTGAEGAVLDEAKNINKSLSALGNVISALAEGSTYVPYRDSKMTRILQDSLGGNCRTTIVICCSPSSYNESETKSTLLFGQRAKTIKNTVCVNVELTAEQWKKKYEKEKEKNKILRNTIQWLENELNRWRNGETVPIDEQFDKEKANLEAFTVDKDITLTNDKPATAIGVIGNFTDAERRKCEEEIAKLYKQLDDKDEEINQQSQLVEKLKTQMLDQEELLASTRRDQDNMQAELNRLQAENDASKEEVKEVLQALEELAVNYDQKSQEVEDKTKEYELLSDELNQKSATLASIDAELQKLKEMTNHQKKRAAEMMASLLKDLAEIGIAVGNNDVKQPEGTGMIDEEFTVARLYISKMKSEVKTMVKRCKQLESTQTESNKKMEENEKELAACQLRISQHEAKIKSLTEYLQNVEQKKRQLEESVDALSEELVQLRAQEKVHEMEKEHLNKVQTANEVKQAVEQQIQSHRETHQKQISSLRDEVEAKAKLITDLQDQNQKMMLEQERLRVEHEKLKATDQEKSRKLHELTVMQDRREQARQDLKGLEETVAKELQTLHNLRKLFVQDLATRVKKSAEIDSDDTGGSAAQKQKISFLENNLEQLTKVHKQLVRDNADLRCELPKLEKRLRATAERVKALESALKEAKENASRDRKRYQQEVDRIKEAVRSKNMARRGHSAQIAKPIRPGQHPAASPTHPSAIRGGGAFVQNSQPVAVRGGGGKQV",fold enrichment against TRAK2-driven synthetic cargo,~20 fold

# — paper doi:10.1101/2024.09.13.612963 (bioRxiv, 2024)
